Data taken from US20230110188A1 (ARGENX IIP, published 2023).
Substitutions are numbered along the chain they refer to.

T1: Mouse MuSK as it stands on mouse muscle (neuromuscular junctions, C2C12 myotubes) (mouse, UniProt Q61006 22-868)
T1 sequence (looked up): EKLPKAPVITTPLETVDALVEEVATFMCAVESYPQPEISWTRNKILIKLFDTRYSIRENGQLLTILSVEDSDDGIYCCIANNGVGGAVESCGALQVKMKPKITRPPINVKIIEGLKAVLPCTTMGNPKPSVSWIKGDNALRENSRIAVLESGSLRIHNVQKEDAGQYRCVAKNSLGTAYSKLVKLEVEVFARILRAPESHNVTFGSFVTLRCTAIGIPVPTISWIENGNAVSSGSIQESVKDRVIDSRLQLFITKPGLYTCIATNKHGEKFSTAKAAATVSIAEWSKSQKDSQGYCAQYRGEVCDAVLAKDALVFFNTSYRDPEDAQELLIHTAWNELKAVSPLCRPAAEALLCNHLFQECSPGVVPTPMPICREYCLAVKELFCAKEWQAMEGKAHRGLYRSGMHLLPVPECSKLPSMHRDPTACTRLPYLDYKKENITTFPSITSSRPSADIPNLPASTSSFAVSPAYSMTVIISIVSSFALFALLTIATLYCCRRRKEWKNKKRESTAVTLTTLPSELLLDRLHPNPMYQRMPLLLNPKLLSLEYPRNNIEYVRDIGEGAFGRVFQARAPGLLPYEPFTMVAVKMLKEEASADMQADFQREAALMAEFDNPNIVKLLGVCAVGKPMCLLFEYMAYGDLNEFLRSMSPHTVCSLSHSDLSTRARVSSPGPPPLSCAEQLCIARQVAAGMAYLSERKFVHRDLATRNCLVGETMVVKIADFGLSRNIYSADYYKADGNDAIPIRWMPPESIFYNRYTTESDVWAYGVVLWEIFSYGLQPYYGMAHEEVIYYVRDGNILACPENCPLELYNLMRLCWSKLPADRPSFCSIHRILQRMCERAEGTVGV

T2: Human MuSK (R&D Systems, cat. 10189-MK, histidine tag) (human, UniProt O15146 24-495)
T2 construct: Bought protein; also called human monomeric MuSK-6xhis; not shown: histidine tag (6xhis)
T2 sequence: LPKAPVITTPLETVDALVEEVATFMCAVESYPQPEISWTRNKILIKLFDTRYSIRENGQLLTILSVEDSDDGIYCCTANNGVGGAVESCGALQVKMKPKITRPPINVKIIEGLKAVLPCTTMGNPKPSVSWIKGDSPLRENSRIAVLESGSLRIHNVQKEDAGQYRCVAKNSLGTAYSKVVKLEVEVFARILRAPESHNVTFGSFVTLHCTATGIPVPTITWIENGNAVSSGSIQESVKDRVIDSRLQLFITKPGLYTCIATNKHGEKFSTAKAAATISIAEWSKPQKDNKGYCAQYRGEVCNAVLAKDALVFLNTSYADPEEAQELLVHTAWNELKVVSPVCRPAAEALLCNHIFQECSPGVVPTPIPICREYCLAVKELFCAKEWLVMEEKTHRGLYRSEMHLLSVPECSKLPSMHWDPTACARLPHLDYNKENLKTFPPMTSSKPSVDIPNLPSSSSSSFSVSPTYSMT

T3: Mouse MuSK (recombinant, streptavidine and Flag tag) (mouse, UniProt Q61006 22-494)
T3 construct: not shown: streptavidine and Flag tag
T3 sequence: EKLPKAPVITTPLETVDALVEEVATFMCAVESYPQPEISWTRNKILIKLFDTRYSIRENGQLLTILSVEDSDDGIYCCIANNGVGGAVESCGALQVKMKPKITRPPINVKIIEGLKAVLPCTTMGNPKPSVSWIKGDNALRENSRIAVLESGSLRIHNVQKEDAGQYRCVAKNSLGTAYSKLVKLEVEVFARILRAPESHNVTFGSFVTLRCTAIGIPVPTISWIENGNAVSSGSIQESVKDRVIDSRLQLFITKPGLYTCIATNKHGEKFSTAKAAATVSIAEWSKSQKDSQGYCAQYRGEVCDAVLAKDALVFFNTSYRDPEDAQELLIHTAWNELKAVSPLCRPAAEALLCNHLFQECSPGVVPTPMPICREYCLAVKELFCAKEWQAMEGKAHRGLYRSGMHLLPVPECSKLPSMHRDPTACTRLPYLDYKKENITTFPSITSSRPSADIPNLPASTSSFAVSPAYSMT

B1: 3D10a (antibody, human IgG1, kappa, L234A L235A, V domains shown)
VH: EVQLVESGGGLVKPGGSLRLSCAASGFTFSASTMAWVRQAPGKGLEWVSSVSGDSHHIYYADSLKGRFTISRDNAKNSLYLQMNSLRAEDTAVYYCARERLLRLGVGFDSWGQGTLVTVSS
VL: DIQMTQSPSSLSASVGDRVTITCRASQRISGFVNWYQQKPGKAPKLLIYAASTLQSGVPSRFSGSGSGTDFTLTISSLQPEDFATYYCQQSYSPLYTFGQGTKLEIKR
B2: 4D3 (antibody, human IgG1, kappa, L234A L235A, V domains shown)
VH: B1 VH with A31S, S32Y, A35T, V51I, G53S, D54G, S55G, H57Y, A61T, S110F
VL: B1 VL with R28S, F32Y, V33L, P94A
B3: 3F6c (antibody, human IgG1, kappa, L234A L235A, V domains shown)
VH: EVQLVESGGGLVKPGGSLRLSCAASGFTFSSYTMDWVRQAPGKGLEWVSSIGSNGDYIYYADSVRGRFTISRDNAKNSLYLQMNSLRAEDTAVYYCARGQLAVAGTHFDYWGQGTLVTVSS
VL: B1 VL with R28K, I29V, S30N, G31K, F32Y, Y96S
B4: 3D9b (antibody, human IgG1, kappa, L234A L235A, V domains shown)
VH: EVQLVESGGGLVKPGGSLRLSCAASGFTFSTYTMHWVRQAPGKGLEWVSSISSRSAYKYYADSVKGRFTISRDNAKNSLYLQMNSLRAEDTAVYYCARDFFQLGPPRFDSWGQGTLVTVSS
VL: B1 VL with G31S, V33L, A50G, T53N, L95S

What follows are binders tested against T1, Mouse MuSK as it stands on mouse muscle … (assay: cell-based or functional assay).
With B1 the “MuSK phosphorylation, % versus agrin (C2C12 myotubes)” value (from here on “MuSK phosphorylation, % versus agrin”) was 83 % versus agrin.
With B2 the “MuSK phosphorylation, % versus agrin” value was 112 % versus agrin.
In the case of B3, the “MuSK phosphorylation, % versus agrin” value is reported as 100 % versus agrin.
In the case of B4, the “MuSK phosphorylation, % versus agrin” value is reported as 205 % versus agrin.

The binders below were run against T2, Human MuSK (R&D Systems, cat. 10189-MK, …) (assay: SPR (Biacore), MuSK-coated chip presaturated with 500 nM 3F6c (competitor)).
Procedure: (§1) A chip was coated with ˜5000 RU of human MuSK (Lot nr DHUCO 11908A, batch nr 1089_MK). In a first experiment the saturating concentration of the pre-leads was determined. This is the concentration where the amplitude of a specific pre-lead doesn't increase anymore when additional pre-lead is injected on the immobilized MuSK.
B1 was tested, and the “amplitude of prelead after presaturating MuSK (RU)” value was 75 RU, the “extra amplitude (%)” value was 3.2% and the “normalized extra amplitude (%)” value was 1.4%.
In the case of B2, the “amplitude of prelead after presaturating MuSK (RU)” value is reported as 68 RU, the “extra amplitude (%)” value is reported as 2.8% and the “normalized extra amplitude (%)” value is reported as 1.1%.
For B3, the “amplitude of prelead after presaturating MuSK (RU)” value was 64 RU, the “extra amplitude (%)” value was 1.8% and the “normalized extra amplitude (%)” value was 0%.
With B4 the “amplitude of prelead after presaturating MuSK (RU)” value was 191 RU, the “extra amplitude (%)” value was 11.5% and the “normalized extra amplitude (%)” value was 9.7%.

These binders were tested against T2, Human MuSK (R&D Systems, cat. 10189-MK, …) (assay: SPR (Biacore), MuSK-coated chip presaturated with 500 nM 3D9b (competitor)).
Procedure: as §1
B1 was tested, and the “amplitude of prelead after presaturating MuSK (RU)” value was -1 RU, the “extra amplitude (%)” value was -0.5% and the “normalized extra amplitude (%)” value was -1.5%.
For B2, the “amplitude of prelead after presaturating MuSK (RU)” value was -3 RU, the “extra amplitude (%)” value was -1.6% and the “normalized extra amplitude (%)” value was -2.6%.
In the case of B3, the “amplitude of prelead after presaturating MuSK (RU)” value is reported as -5 RU, the “extra amplitude (%)” value is reported as -2.1% and the “normalized extra amplitude (%)” value is reported as -3.1%.
B4 was tested, and the “amplitude of prelead after presaturating MuSK (RU)” value was 40 RU, the “extra amplitude (%)” value was 1% and the “normalized extra amplitude (%)” value was 0%.

What follows are binders tested against T2, Human MuSK (R&D Systems, cat. 10189-MK, …) (assay: SPR (Biacore), antibody captured on anti-hFc chip; 5 nM; dissociation pH 7.4).
Text: (§2) In order to study pH dependent binding of our antibodies to MuSK, the Biacore was used with the same setup as described in the paragraph entitled “Binding affinity for mouse, human and rhesus monkey recombinant MuSK in Biacore”. 6. […] For the other antibodies there is no real difference observed between pH 7.4 and 5.5.
A koff of 0.00015 s⁻¹ was found for B1 in this work.
A koff of 0.00014 s⁻¹ was found for B2 in this work.
A koff of 7e-05 s⁻¹ was found for B3 in this work.
A koff of 8e-05 s⁻¹ was found for B4 in this work.

Each binder was assayed against T2, Human MuSK (R&D Systems, cat. 10189-MK, …) (assay: SPR (Biacore), MuSK-coated chip, antibody alone (run of first antibody 3D9b)).
Procedure: as §1
With B1 the “amplitude of prelead without presaturating MuSK (RU)” value was 189 RU.
For B2, the “amplitude of prelead without presaturating MuSK (RU)” value was 188 RU.
B3 was tested, and the “amplitude of prelead without presaturating MuSK (RU)” value was 235 RU.
B4 was tested, and the “amplitude of prelead without presaturating MuSK (RU)” value was 3970 RU.

Each binder was assayed against T3, Mouse MuSK (recombinant, streptavidine …) (assay: SPR (Biacore), antibody captured on anti-hFc chip, MuSK injected 0.3125-10 nM).
Procedure: The affinity of 3D10a, 4D3, 3F6c and 3D9b for human, rhesus monkey and mouse MuSK was tested in Biacore using the setup shown in FIG. 3. […] The affinities are very high keeping in mind that MuSK was added here in solution, allowing only for monovalent binding (affinity versus avidity).
A Kd of 0.1 nM was found for B1 in this work.
A Kd of 0.17 nM was found for B2 in this work.
A Kd of 0.03 nM was found for B3 in this work.
A Kd of 0.14 nM was found for B4 in this work.

Each binder was assayed against T2, Human MuSK (R&D Systems, cat. 10189-MK, …) (assay: SPR (Biacore), antibody captured on anti-hFc chip; 1.25 nM; dissociation pH 7.4).
Text: as §2
A koff of 0.00016 s⁻¹ was found for B1 in this work.
A koff of 0.00015 s⁻¹ was found for B2 in this work.
A koff of 7e-05 s⁻¹ was found for B3 in this work.
A koff of 0.00014 s⁻¹ was found for B4 in this work.

Each binder was assayed against T2, Human MuSK (R&D Systems, cat. 10189-MK, …) (assay: SPR (Biacore), antibody captured on anti-hFc chip; 0.3125 nM; dissociation pH 5.5).
Text: as §2
A koff of 6e-05 s⁻¹ was found for B1 in this work.
A koff of 0.00018 s⁻¹ was found for B2 in this work.
A koff of 0.00023 s⁻¹ was found for B3 in this work.
A koff of 3e-05 s⁻¹ was found for B4 in this work.
